Assay results: US20240352132A1 (JIANGSU HENGRUI PHARMACEUTICALS, published 2024)

Assays:
[1] = target: T1, HGFR protein extracellular domain with the His tag (human, UniProt P08581 25-932); test: SPR Biacore T200, antibody captured on Protein A, antigen in flow, 1:1 fit
T1 construct: also called HGFR-His; human HGFR
Experimental: (§1) The affinity of the test molecule for human EGFR (SEQ ID NO: 42) or human HGFR protein (SEQ ID NO: 43) was determined by Biacore T200 (GE) as follows:
(§2) The antibody molecules were affinity-captured on a Protein A biosensor chip of which antigens flowed through the surface for 180 s, and then the antibody molecules were dissociated for 600 s. The reaction signals were detected in real time using a Biacore T200 instrument to obtain association and dissociation curves. After dissociation was completed for each cycle, the biosensor chip was washed with 10 mM Gly-HCl (pH 1.5) for regeneration. Data were fitted using a 1:1 model, and affinity values of the test molecules were obtained. In this example, the positive control MCLA was a bispecific antibody specifically binding to HGFR and EGFR (see PB8532 in WO2019031965 for specific sequences).

[2] = target: T1, HGFR protein extracellular domain with …; test: flow cytometry on HGFR CHO-S stably transfected cells, R-PE goat anti-human (H+L) detection
From the text: (§3) The binding activity of antigen-binding molecules specifically binding to HGFR and EGFR to cells was detected using a flow cytometer. EGFR CHO-S stably transfected cell strain, HGFR CHO-S stably transfected cell strain, and H1975-HGF or MKN-45 tumor cell strain at 1×10⁶ cells/mL were blocked with 1% BSA PBS buffer, followed by the addition of diluted antibody samples at different concentrations (C25 was a negative control, which was an IgGI antibody protein of irrelevant targets, the same applied hereinafter), and the mixtures were incubated for 1 h. After the mixtures were washed twice, R-PE-goat anti-human (H+L) antibody (Invitrogen, CAT #H10104) was added, and the mixtures were incubated for 0.5 h. After the plate was washed twice, fluorescence signals were read using a flow cytometer.

[3] = target: T2, human EGFR protein extracellular domain with the His tag (human, UniProt P00533 25-645); test: SPR Biacore T200, antibody captured on Protein A, antigen in flow, 1:1 fit
T2 construct: also called EGFR-His
Experimental: as §1, §2

[4] = target: T2, human EGFR protein extracellular domain …; test: competition ELISA, blocks EGF-mFc on captured EGFR-His
Experimental: 1 μg/mL rabbit anti-His antibody (GenScript, A01857) was coated overnight at 4° C. and then blocked. After the plate was washed, 2 μg/mL EGFR-His (SEQ ID NO: 42) was added, and the plate was incubated for 1 h. […] After the plate was washed, a tetramethylbenzidine solution was added for color development. Finally, a stop solution was added. OD450 values were measured on a microplate reader.

[5] = target: T1, HGFR protein extracellular domain with …; test: competition ELISA, blocks bio-HGF-His on coated HGFR-His
Experimental: The ability of the antibodies to block HGF/HGFR was tested by ELISA. 5 μg/mL HGFR-His (for the sequence, see SEQ ID NO: 43) was coated overnight at 4° C. and then blocked. […] After the plate was washed, horseradish peroxidase-streptavidin (Jackson, 016-030-084) was added, and the plate was incubated for 1 h. After the plate was washed, a tetramethylbenzidine solution was added for color development. Finally, a stop solution was added. OD450 values were measured on a microplate reader.

[6] = target: T2, human EGFR protein extracellular domain …; test: flow cytometry on EGFR CHO-S stably transfected cells, R-PE goat anti-human (H+L) detection
From the text: as §3

[7] = target: T1, HGFR protein extracellular domain with …; test: SPR Biacore T200
Experimental: as §1, §2

Binder	Kd [1] [nM]	EC50 (read off the curve) [2] [nM]	koff [1] [s⁻¹]	kon [1] [M⁻¹ s⁻¹]	Kd [3] [nM]	koff [3] [s⁻¹]	kon [3] [M⁻¹ s⁻¹]	IC50 [4] [µg/mL]	IC50 [5] [µg/mL]	EC50 (read off the curve) [6] [nM]	fold affinity against Ab10 [7] [fold]
Omab (antibody, V domains shown, anti-HGFR antibody (WO2013003680A1); also called onartuzumab) VH: EVQLVESGGGLVQPGGSLRLSCAASGYTFTSYWLHWVRQAPGKGLEWVGMIDPSNSDTRFNPNFKDRFTISADTSKNTAYLQMNSLRAEDTAVYYCATYRSYVTPLDYWGQGTLVTVSS VL: DIQMTQSPSSLSASVGDRVTITCKSSQSLLYTSSQKNYLAWYQQKPGKAPKLLIYWASTRESGVPSRFSGSGSGTDFTLTISSLQPEDFATYYCQQYYAYPWTFGQGTKVEIK	–	~0.4	–	–	–	–	–	–	–	–	–
Ab10.1 (antibody, V domains shown, CDR mutant of Ab10) VH: QVQLVESGGGVVQPGRSLRLSCAASGFSLSDYGVHWVRQAPGKGLEWLAVIWSGGSTNYADAFVSRLTISKDNSKNTVYLQMNSLRAEDTAVYYCARNHDNPYIYAMDYWGQGTTVTVSS VL: DIVLTQSPDSLAVSLGERATINCRADKSVSTSTYNYLHWYQQKPGQPPKLLIYRGSFLATGVPDRFSGSGSGTDFTLTISSLQAEDVAVYYCQHSRDLPPTFGQGTKLEIK	7.56	~0.5	0.000309	40800	–	–	–	–	–	–	≥ 4

Second part, the binder after the results:

Kd [1] [nM]	EC50 (read off the curve) [2] [nM]	koff [1] [s⁻¹]	kon [1] [M⁻¹ s⁻¹]	Kd [3] [nM]	koff [3] [s⁻¹]	kon [3] [M⁻¹ s⁻¹]	IC50 [4] [µg/mL]	IC50 [5] [µg/mL]	EC50 (read off the curve) [6] [nM]	fold affinity against Ab10 [7] [fold]	Binder
3.04	–	–	–	–	–	–	–	–	–	–	EM2 (bispecific antibody, human IgG1, kappa, Format 2: Omab Fab (knob) plus Zal.1 Titin/Obscurin-substituted Fab (hole); four chains) heavy 1: not shown light 1: DIQMTQSPSSLSASVGDRVTITCKSSQSLLYTSSQKNYLAWYQQKPGKAPKLLIYWASTRESGVPSRFSGSGSGTDFTLTISSLQPEDFATYYCQQYYAYPWTFGQGTKVEIKRTVAAPSVFIFPPSDEQLKSGTASVVCLLNNFYPREAKVQWKVDNALQSGNSQESVTEQDSKDSTYSLSSTLTLSKADYEKHKVYACEVTHQGLSSPVTKSFNRGEC heavy 2: QVQLVESGGGVVQPGRSLRLSCAASGFTFSTYGMHWVRQAPGKGLEWVAVIWDDGSYKYYGDSVKGRFTISRDNSKNTLYLQMNSLRAEDTAVYYCARDGITMVRGVMKDYFDYWGQGTLVTVSSGGGGSGIPPKIECLPIDISIDEGKVLTVASAFTGEPTPEVTWSTGGRKIHSQEQGRFHIENTDDSTTLTIKDVQKQDGGLYTLTLRNEFGSDSATVNIHIRSIDKTHTCPPCPAPELLGGPSVFLFPPKPKDTLMISRTPEVTCVVVDVSHEDPEVKFNWYVDGVEVHNAKTKPREEQYNSTYRVVSVLTVLHQDWLNGKEYKCKVSNKALPAPIEKTISKAKGQPREPQVCTLPPSREEMTKNQVSLSCAVKGFYPSDIAVEWESNGQPENNYKTTPPVLDSDGSFFLVSKLTVDKSRWQQGNVFSCSVMHEALHNHYTQKSLSLSPGK light 2: DIQLTQSPSSLSASVGDRVTITCRASQDISSALVWYQQKPGKAPKLLIYDASSLESGVPSRFSGSESGTDFTLTISSLQPEDFATYYCQQFNSYPLTFGGGTKVEIKGGGGSSGAPRFLTRPKASVVSVGKDATLSCQIVGNPFPQVSWEKDKQPVTAGVRFRLAQDGDLYRLKILDLQLSDSGQYVCRARNAHGEAFACLGLQVDAEA
2.26	–	0.000124	54800	7.29	0.00103	142000	2.37	0.25	~2	–	EM1 (bispecific antibody, human IgG1, kappa, Format 1: Zal.1 Fv on Ab10.1 Fab (knob) plus Omab Titin/Obscurin-substituted Fab (hole); four chains) heavy 1: not shown light 1: DIQLTQSPSSLSASVGDRVTITCRASQDISSALVWYQQKPGKAPKLLIYDASSLESGVPSRFSGSESGTDFTLTISSLQPEDFATYYCQQFNSYPLTFGGGTKVEIKGGGGSGGGGDIVLTQSPDSLAVSLGERATINCRADKSVSTSTYNYLHWYQQKPGQPPKLLIYRGSFLATGVPDRFSGSGSGTDFTLTISSLQAEDVAVYYCQHSRDLPPTFGQGTKLEIKRTVAAPSVFIFPPSDEQLKSGTASVVCLLNNFYPREAKVQWKVDNALQSGNSQESVTEQDSKDSTYSLSSTLTLSKADYEKHKVYACEVTHQGLSSPVTKSFNRGEC heavy 2: EVQLVESGGGLVQPGGSLRLSCAASGYTFTSYWLHWVRQAPGKGLEWVGMIDPSNSDTRFNPNFKDRFTISADTSKNTAYLQMNSLRAEDTAVYYCATYRSYVTPLDYWGQGTLVTVSSGGGGSGIPPKIECLPIDISIDEGKVLTVASAFTGEPTPEVTWSTGGRKIHSQEQGRFHIENTDDSTTLTIKDVQKQDGGLYTLTLRNEFGSDSATVNIHIRSIDKTHTCPPCPAPELLGGPSVFLFPPKPKDTLMISRTPEVTCVVVDVSHEDPEVKFNWYVDGVEVHNAKTKPREEQYNSTYRVVSVLTVLHQDWLNGKEYKCKVSNKALPAPIEKTISKAKGQPREPQVCTLPPSREEMTKNQVSLSCAVKGFYPSDIAVEWESNGQPENNYKTTPPVLDSDGSFFLVSKLTVDKSRWQQGNVFSCSVMHEALHNHYTQKSLSLSPGK light 2: DIQMTQSPSSLSASVGDRVTITCKSSQSLLYTSSQKNYLAWYQQKPGKAPKLLIYWASTRESGVPSRFSGSGSGTDFTLTISSLQPEDFATYYCQQYYAYPWTFGQGTKVEIKGGGGSSGAPRFLTRPKASVVSVGKDATLSCQIVGNPFPQVSWEKDKQPVTAGVRFRLAQDGDLYRLKILDLQLSDSGQYVCRARNAHGEAFACLGLQVDAEA
